From US20140287989A1 (CENTRE NATIONAL DE LA RECHERCHE SCIENTIFIQUE, published 2014) come the findings set out here.

Where “and” joins values, the source holds several entries; their conditions need not be identical. Equal values may be shown once. Square brackets hold non-standard residues; d marks the D form. Phe(3,4-Cl2) = N[C@@H](Cc1ccc(Cl)c(Cl)c1)C(=O)O; Phe(4-Br) = N[C@@H](Cc1ccc(Br)cc1)C(=O)O; Phe(4-Cl) = N[C@@H](Cc1ccc(Cl)cc1)C(=O)O; Phe(4-Me) = Cc1ccc(C[C@H](N)C(=O)O)cc1; Cha = N[C@@H](CC1CCCCC1)C(=O)O A value given as a limit tells only on which side of the number the result lay.

In assay [1] the target is E. coli β clamp (β subunit of DNA polymerase III, dnaN gene product), N-tagged (E. coli) (UniProt P0A988). The assay is described as follows: SPR competition (Biacore 3000): β ring 0.25 µM mixed with the challenger, injected on immobilised P1.
Assay [2] has the same target. As to the kind of experiment: SPR competition against P1.
Assay [3] shares this target. The assay is described as follows: SPR competition against P1, ratio of IC50 values; written as printed, the two labels seem exchanged against Table 14 and paragraph 151.
Assay [4] shares this target. As to the kind of experiment: SPR competition on immobilised P1; ΔG = -RT ln Ki.
Assay [5] has the same target. As to the kind of experiment: SPR competition on immobilised P1.
Assay [6] concerns the target E. coli β clamp (β subunit of DNA polymerase III, dnaN gene product) (E. coli) (UniProt P0A988). As to the kind of experiment: SPR competition: peptide with β ring injected on immobilized P1.
The target in assay [7] is E. coli β clamp (β subunit of DNA polymerase III, dnaN gene product), N-tagged (E. coli) (UniProt P0A988).
For assay [8] the target is unchanged. The assay is described as follows: ITC, peptide 400 µM into β ring 20 or 30 µM, 25° C. A general note: In ITC the heat of successive injections is recorded.
In assay [9] the target is E. coli β clamp (β subunit of DNA polymerase III, dnaN gene product) (E. coli) (UniProt P0A988). The assay is described as follows: SPR competition, concentration of peptide that challenges 50% of the binding of β ring to P1.
The target in assay [10] is T1, E. coli β clamp (β subunit of DNA polymerase III, dnaN gene product) (E. coli, UniProt P0A988 1-366).
T1 construct: Homodimeric ring; N-tagged protein expressed in BL21 E. coli and purified on Ni-NTA and MonoQ; also called β ring; β protein; not shown: N-terminal tag from the pET15b plasmid
The assay is described as follows: SPR competition; ΔG = -RT ln Ki.

In assay [11] the target is T1, E. coli β clamp (β subunit of DNA …). As to the kind of experiment: SPR competition: peptide with β ring injected on immobilized P1.
Assay [12] addresses T2, E. coli β clamp (β subunit of DNA polymerase III, dnaN gene product), N-tagged (E. coli, UniProt P0A988 1-366).
T2 construct: The dnaN gene was cloned in pET15b and expressed in BL21 E. coli; also called β ring; β protein; not shown: N-terminal tag from the pET15b vector (N-tagged protein, enriched on Ni-NTA)
As to the kind of experiment: SPR competition on immobilised P1; ΔG = -RT ln Ki.

For assay [13], the target named is T2, E. coli β clamp (β subunit of DNA …). As to the kind of experiment: SPR competition on immobilised P1.
Assay [14] shares this target. The assay is described as follows: cell-based or functional assay.
Assay [15] addresses T1, E. coli β clamp (β subunit of DNA …). As to the kind of experiment: SPR competition: peptide with β ring injected on immobilized P1. The source holds these as a separate data set.
In assay [16] the target is T3, E. coli β clamp (β subunit of DNA polymerase III, dnaN gene product) (E. coli, UniProt P0A988 1-366).
T3 construct: Expressed in BL21 E. coli from pET15b with an N-terminal tag; also called β ring; β protein; not shown: N-terminal tag from plasmid pET15b ('N-tagged protein', purified on Ni-NTA)
The assay is described as follows: ITC, peptide 400 µM into β ring 30 µM, 25 °C.

Assay [17] has as its target T3, E. coli β clamp (β subunit of DNA …). The assay is described as follows: SPR competition, β ring on immobilised P1.
Assay [18] shares this target. The assay is described as follows: ITC, peptide 400 µM into β ring 30 µM, 25 °C, second experiment.

T2 sequence (P0A988 whole entry): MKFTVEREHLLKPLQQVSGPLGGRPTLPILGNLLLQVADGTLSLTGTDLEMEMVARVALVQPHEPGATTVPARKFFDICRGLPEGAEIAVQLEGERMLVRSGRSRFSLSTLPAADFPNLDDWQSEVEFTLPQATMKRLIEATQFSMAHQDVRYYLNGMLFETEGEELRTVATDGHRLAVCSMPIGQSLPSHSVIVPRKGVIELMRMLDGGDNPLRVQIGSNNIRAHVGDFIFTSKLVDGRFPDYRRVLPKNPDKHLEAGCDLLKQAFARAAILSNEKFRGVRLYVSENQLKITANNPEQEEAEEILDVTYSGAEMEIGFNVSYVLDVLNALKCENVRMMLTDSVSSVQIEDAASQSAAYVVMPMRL
Sequence of E. coli β clamp (β subunit of DNA polymerase III, dnaN gene product) (E. coli) (P0A988 whole entry): as above
Sequence of E. coli β clamp (β subunit of DNA polymerase III, dnaN gene product), N-tagged (E. coli) (P0A988 whole entry): as above

Take “P4 (RQLVFL) (peptide; other documents disagree on this pair)”: the IC50 in [1] came out at 256000 nM.
In the case of P14-7 (Ac R Q Cha R L F) (peptide), the affinity ratio against P7 in assay [2] was more than 50 fold; in [3] it was 5 fold.
In the case of “P2 (RQLVLL) (peptide; other documents disagree on this pair)”, the ΔG in [4] was -6.54 kcal/mol. Besides, the fold decrease in interaction against P1 in assay [5] is 2 fold and 3 fold. This molecule also returned a half-maximal inhibitory concentration (IC50) in [1] of 21500 nM.
With P16, Ac Q Cha D hLeu F (peptide), the concentration for half-maximal inhibition (IC50) in assay [6] came to 230 nM.
P12 (Ac-Q Cha DL pClF) (peptide): the IC50, Pol IV based biochemical assay (inhibition of β dependent Pol IV elongation) in [7] came to 300 nM. In [8], this molecule came in with an equilibrium dissociation constant (Kd) of 100 nM.
In [9], “P14-8 (Ac R Q Cha K L F) (peptide; other documents disagree on this pair)” registered an inhibition constant (Ki) of 904 nM. Besides, in assay [2], the Ki turned out to be 1000 nM and the fold decrease in affinity against P14 stood at 10 fold. Moreover, the affinity ratio against P7 in [3] worked out at 50 fold.
For “P21, Ac-Q Cha DLW (peptide; other documents disagree on this pair)”, the IC50 in assay [6] amounted to 640 nM. This counts as sub-micromolar.
In the case of P3 (RQLVLF) (peptide), in assay [7], the IC50, Pol IV based biochemical assay (inhibition of β dependent Pol IV elongation) was 7000 nM.
As for P18, Ac Q Cha D hCha F (peptide), in assay [6], the IC50 came out at 720 nM. In other words, the sub-micromolar range.
In turn, P11 (Ac-Q Cha DL pMeF) (peptide) gave an IC50, Pol IV based biochemical assay (inhibition of β dependent Pol IV elongation) in assay [7] of 2000 nM. Further, in [8], the Kd came to 380 nM.
For P22, Ac-Q Cha DL Atda (peptide), in assay [6], the concentration for half-maximal inhibition (IC50) was 3720 nM.
Same read-out and setting: then P17, Ac Q Cha D Cha F (peptide), with 310 nM.
The molecule “P14-5 (Cin R Q Cha N L diClF) (peptide; other documents disagree on this pair)” gave a Ki in assay [9] of 3250 nM.
Molecule P20, Ac-Q Cha DL Cha (peptide) returned an IC50 in [6] of 410 nM.
Consider P13 (Ac-Q Cha DL pBrF) (peptide), for which the IC50, Pol IV based biochemical assay (inhibition of β dependent Pol IV elongation) in assay [7] is 250 nM. Further, the Kd in assay [8] is 150 nM.
In the case of P19, Ac Q ChaD NptGly F (peptide), the IC50 in assay [6] was 5630 nM.
Still for that read-out and setting: the same measure for “P23, Ac-QFDLF (peptide; other documents disagree on this pair)”: 31600 nM.
Turning to H-QLDLF-OH (also called QLDLF) [P5, H-Gln-Leu-Asp-Leu-Phe-OH], the ΔG in assay [10] was -6.87 kcal/mol.

B1: P1, H-Arg-Gln-Leu-Val-Leu-Gly-Leu-OH (peptide)
peptide: H-RQLVLGL-OH
notes: also called RQLVLGL; natural Cter heptamer of E. coli DNA polymerase IV
B1 had a ΔG in assay [10] of -7.06 kcal/mol. This molecule also yielded a concentration for half-maximal inhibition (IC50) in assay [11] of 8850 nM.
In turn, Ac-QLDLF-OH (also called AcQLDLF) [P6, Ac-Gln-Leu-Asp-Leu-Phe-OH] showed a ΔG in [10] of -8.22 kcal/mol.

B2: E. coli DNA polymerase IV (enzyme)
chain: MRKIIHVDMDCFFAAVEMRDNPALRDIPIAIGGSRERRGVISTANYPARKFGVRSAMPTGMALKLCPHLTLLPGRFDAYKEASNHIREIFSRYTSRIEPLSLDEAYLDVTDSVHCHGSATLIAQEIRQTIFNELQLTASAGVAPVKFLAKIASDMNKPNGQFVITPAEVPAFLQTLPLAKIPGVGKVSAAKLEAMGLRTCGDVQKCDLVMLLKRFGKFGRILWERSQGIDERDVNSERLRKSVGVERTMAEDIHHWSECEAIIERLYPELERRLAKVKPDLLIARQGVKLKFDDFQQTTQEHVWPRLNKADLIATARKTWDERRGGRGVRLVGLHVTLLDPQMERQLVLGL
notes: Called the whole polymerase / the full PolIV enzyme; construct and tags not described; also called PolIV; Pol IV
The molecule B2 yielded a ΔG in assay [12] of -9.09 kcal/mol.

B3: E. coli DNA polymerase IV (enzyme)
chain: MRKIIHVDMDCFFAAVEMRDNPALRDIPIAIGGSRERRGVISTANYPARKFGVRSAMPTGMALKLCPHLTLLPGRFDAYKEASNHIREIFSRYTSRIEPLSLDEAYLDVTDSVHCHGSATLIAQEIRQTIFNELQLTASAGVAPVKFLAKIASDMNKPNGQFVITPAEVPAFLQTLPLAKIPGVGKVSAAKLEAMGLRTCGDVQKCDLVMLLKRFGKFGRILWERSQGIDERDVNSERLRKSVGVERTMAEDIHHWSECEAIIERLYPELERRLAKVKPDLLIARQGVKLKFDDFQQTTQEHVWPRLNKADLIATARKTWDERRGGRGVRLVGLHVTLLDPQMERQLVLGL
notes: also called PolIV; Pol IV
Turning to B3, the ΔG in assay [10] is -9.09 kcal/mol.
In assay [12], QLDLF [P5 (QLDLF)] registered a ΔG of -6.87 kcal/mol.
On to Ac-QLDLF-OH (also called Ac-Gln-Leu-Asp-Leu-Phe-OH) [P6 (AcQLDLF), listing 1 of 2 here], for which the “times tighter binding than P1” value in [13] was approximately 8 fold. This molecule gave a ΔG in assay [12] of -8.22 kcal/mol. In addition, the “IC50, Pol IV based biochemical assay (inhibition of β dependent Pol IV elongation)” value in [14] worked out at 4500 nM.

B4: P11, Ac-Gln-Cha-Asp-Leu-pMePhe-OH (peptide)
peptide: Ac-Q[Cha]DL[Phe(4-Me)]-OH
SMILES: CC(=O)N[C@@H](CCC(N)=O)C(=O)N[C@@H](CC1CCCCC1)C(=O)N[C@@H](CC(=O)O)C(=O)N[C@@H](CC(C)C)C(=O)N[C@@H](Cc1ccc(C)cc1)C(=O)O
notes: X stands for Cha; the substituted phenylalanine is written F; also called Ac-Q Cha DL pMeF
B4 displayed a ΔG in assay [10] of -9.44 kcal/mol. Besides, the half-maximal inhibitory concentration (IC50) in [15] and in assay [11] was 260 nM in each case.

B5: P1, natural C-terminal heptapeptide of E. coli DNA polymerase IV (RQLVLGL) (peptide)
peptide: H-RQLVLGL-OH
notes: Free peptide in ITC; also called H-Arg-Gln-Leu-Val-Leu-Gly-Leu-OH
In assay [16], B5 came in with a dissociation constant (Kd) of 1580 nM, a ΔG of -7.9 kcal/mol, a ΔH of -4.09 kcal/mol and a ΔS of 12.8 cal/mol/deg. Besides, the IC50 in assay [17] amounted to 8850 nM. In assay [18], this molecule gave a Kd of 2010 nM, a ΔG of -7.7 kcal/mol, a ΔH of -5.5 kcal/mol and a ΔS of 7.6 cal/mol/deg.

B6: P12, Ac-Gln-Cha-Asp-Leu-pClPhe-OH (peptide)
peptide: Ac-Q[Cha]DL[Phe(4-Cl)]-OH
SMILES: CC(=O)N[C@@H](CCC(N)=O)C(=O)N[C@@H](CC1CCCCC1)C(=O)N[C@@H](CC(=O)O)C(=O)N[C@@H](CC(C)C)C(=O)N[C@@H](Cc1ccc(Cl)cc1)C(=O)O
notes: X stands for Cha; the substituted phenylalanine is written F; also called Ac-Q Cha DL pClF
In turn, B6 showed a ΔG in [10] of -9.73 kcal/mol. For the same molecule, the half-maximal inhibitory concentration (IC50) in assay [15] and in [11] was 160 nM throughout.

B7: P14, Ac-Gln-Cha-Asp-Leu-(3,4-di-Cl)Phe-OH (peptide)
peptide: Ac-Q[Cha]DL[Phe(3,4-Cl2)]-OH
SMILES: CC(=O)N[C@@H](CCC(N)=O)C(=O)N[C@@H](CC1CCCCC1)C(=O)N[C@@H](CC(=O)O)C(=O)N[C@@H](CC(C)C)C(=O)N[C@@H](Cc1ccc(Cl)c(Cl)c1)C(=O)O
notes: X stands for Cha; the substituted phenylalanine is written F; also called Ac-Q Cha DL diClF; Bu29
As for B7, the ΔG in assay [10] was -9.85 kcal/mol. The results for the IC50 in [15] and in assay [11] were 72 nM and 77 nM, respectively.
In assay [16], Ac-QLDLF-OH (also called Ac-Gln-Leu-Asp-Leu-Phe-OH) [P6 (AcQLDLF), listing 2 of 2 here] returned a dissociation constant Kd of 820 nM, a ΔH of -11.3 kcal/mol and a ΔS of -10.4 cal/mol/deg. In assay [18], this molecule returned a Kd of 613 nM, a ΔG of -8.3 kcal/mol, a ΔH of -11.1 kcal/mol and a ΔS of -9.08 cal/mol/deg.

B8: P13, Ac-Gln-Cha-Asp-Leu-pBrPhe-OH (peptide)
peptide: Ac-Q[Cha]DL[Phe(4-Br)]-OH
SMILES: CC(=O)N[C@@H](CCC(N)=O)C(=O)N[C@@H](CC1CCCCC1)C(=O)N[C@@H](CC(=O)O)C(=O)N[C@@H](CC(C)C)C(=O)N[C@@H](Cc1ccc(Br)cc1)C(=O)O
notes: X stands for Cha; the substituted phenylalanine is written F; also called Ac-Q Cha DL pBrF
Turning to B8, the ΔG in assay [10] was -9.71 kcal/mol. For the same molecule, the figures for the IC50 in [15] and in [11] were 100 nM and 96 nM, respectively.

The term IC50 denotes the concentration needed to halve the response being measured. Higher therefore signals weaker potency in that assay. In general, Kd refers to the free concentration of one partner at which half of the binding sites on the other are occupied at equilibrium, for simple one-to-one binding. High values mean a looser complex, low ones a tighter complex. The term Ki denotes a dissociation constant, usually derived from enzyme kinetics or from competition with a known ligand.
